This is an account of results in patent US20230374142A1 (MONASH UNIVERSITY, published 2023).

In the test the target is T1, full-length human CLEC9A on transfected 293F cells (human, UniProt Q6UXN8 1-241).
T1 construct: also called cell surface CLEC9A
Put plainly: flow cytometry on 293F cells transfected with full-length human CLEC9A.

T1 sequence (Q6UXN8 whole entry): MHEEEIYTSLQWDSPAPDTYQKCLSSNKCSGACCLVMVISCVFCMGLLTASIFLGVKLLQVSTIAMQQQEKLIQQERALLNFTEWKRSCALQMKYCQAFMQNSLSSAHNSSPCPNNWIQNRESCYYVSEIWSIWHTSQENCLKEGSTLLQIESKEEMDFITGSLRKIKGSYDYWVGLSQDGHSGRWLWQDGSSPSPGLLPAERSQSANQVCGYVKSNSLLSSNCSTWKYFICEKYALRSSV

B1: human/rat chimaeric anti-CLEC9A Ab (clone 4C6) (antibody, V domains shown)
VH: EVQLVESGGGLVQPGGSLKLSCVASGFTFNNYWLAWIRQAPRKGLEWVASITTAAGGTYYPDSVKGRFTISRDNAKSTLYLQMNSLTSEDTATYYCTRVGRDIWDYWGQGVVVTVSS
VL: EILMTQTPVSLPVSLGGQVSFSCRSSQSLLHSDGNTYLHWYLQKPGQSPQLLIWRISNRFSGVPDRFSGSGSGTDFTLKISRVEPEDLGVYYCLQSSHFPPTFGGGTNLEIKR
notes: also called human chimeric anti-Clec9A Ab; original human chimaeric anti-CLEC9A Ab
As for B1, the binding result is “binds”.

B2: humanised anti-CLEC9A Ab (Ab1) (antibody, human IgG4 S228P, kappa, V domains shown)
VH: EVQLLESGGGLVQPGGSLRLSCAASGFTFNNYWLAWVRQAPGKGLEWVASITTAAGGTYYPDSVKGRFTISRDNSKNTLYLQMNSLRAEDTAVYYCTRVGRDIWDYWGQGTLVTVSS
VL: DIVMTQTPLSLSVTPGQPASISCKSSQSLLHSDGNTYLHWYLQKPGQPPQLLIWRISNRFSGVPDRFSGSGSGTDFTLKISRVEAEDVGVYYCLQSSHFPPTFGGGTKVEIKR
notes: Human IgG4 / kappa; also called Humanised CLEC9A Ab; humanised anti-CLEC9A antibody
For the molecule B2, the binding result was “binds”.
